# Data taken from patent publication US20030104352.
# Target: T1, LtrA (L1.LtrB group II intron-encoded protein) (Lactococcus lactis) (UniProt P0A3U0)
# T1 sequence: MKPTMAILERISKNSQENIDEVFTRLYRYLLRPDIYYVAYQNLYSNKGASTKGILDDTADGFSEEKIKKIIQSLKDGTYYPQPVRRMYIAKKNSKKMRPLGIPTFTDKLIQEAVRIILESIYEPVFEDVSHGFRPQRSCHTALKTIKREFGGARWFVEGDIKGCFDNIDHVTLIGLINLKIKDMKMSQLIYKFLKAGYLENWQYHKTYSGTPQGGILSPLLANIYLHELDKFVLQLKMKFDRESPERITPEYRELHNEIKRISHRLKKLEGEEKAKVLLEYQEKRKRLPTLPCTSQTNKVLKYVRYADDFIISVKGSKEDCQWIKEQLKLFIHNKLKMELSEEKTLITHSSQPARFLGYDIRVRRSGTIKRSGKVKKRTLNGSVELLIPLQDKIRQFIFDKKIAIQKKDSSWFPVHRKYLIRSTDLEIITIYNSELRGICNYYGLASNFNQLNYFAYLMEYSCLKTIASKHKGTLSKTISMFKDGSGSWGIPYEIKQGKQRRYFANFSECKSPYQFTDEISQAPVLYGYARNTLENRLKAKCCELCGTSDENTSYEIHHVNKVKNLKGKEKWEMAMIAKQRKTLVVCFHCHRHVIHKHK
# Experiment: cell_activity
# Settings: for binding signal (mutability value): doped target pool selection; for activity: after IPTG induction
substance,measurement,setting,value
L1.LtrB deltaORF intron RNA ; L1.LtrB DNA target -30 to +15,activity (% TetR colonies),"100 uM IPTG, ~70% without IPTG",100
L1.LtrB deltaORF intron RNA ; L1.LtrB target C-7A,binding signal (mutability value),"[24 (-7 C>A)], preferred over wild type",3.83
L1.LtrB deltaORF intron RNA ; L1.LtrB target G-21A,binding signal (mutability value),[10 (-21 G>A)],-0.6
L1.LtrB deltaORF intron RNA ; L1.LtrB target G-21C,binding signal (mutability value),[10 (-21 G>C)],-0.9
L1.LtrB deltaORF intron RNA ; L1.LtrB target G-21T,binding signal (mutability value),"[10 (-21 G>T)], absent from active sites",-1
retargeted L1.LtrB intron HIV1-4021s ; HIV-1 proviral target 4021s,activity,,> 60 % mobility
retargeted L1.LtrB intron HIV1-4069s ; HIV-1 pol target 4069s,activity,also inserted in human cells (p89),> 60 % mobility
